Data from article PMC6542021.

Key:
[1] = molecular target: FcγRIII CD16 on NK cells (human (endogenous in NK cells of healthy donors)) (UniProt P08637); assay: FACS; NK cells within PBMC
[2] = molecular target: FcγRIII CD16 on NK cells (human (endogenous in NK cells of healthy donors)) (UniProt P08637); assay: flow cytometry on cells; PBMC of healthy donors incubated with the indicated concentrations of NKG2D-Fc-ADCC, followed by an anti-human PE conjugate; EC50 from MFI by a sigmoidal dose-response curve (GraphPad Prism); one representative experiment of three
CD3 (Homo sapiens) = assay: FACS; T cells within PBMC; conditions: other; Only the NKG2D limits and the CH2 changes are printed. UCHT1 VH/VL are taken from the 1XIW scFv complex (entity order VL=3, VH=4 from memory). Human CH1/hinge and human C-kappa are assumed (KappaSelect purification, anti-human PE detection). CH2 end (EU 340) is by convention. G236 (P01857 119) is deleted; EU number = P01857 number + 117. Junction residues are not printed. Fab interchain disulfide; modification not given
Chain of CD3 (Homo sapiens) (P07766 23-207, chain 1 of 3): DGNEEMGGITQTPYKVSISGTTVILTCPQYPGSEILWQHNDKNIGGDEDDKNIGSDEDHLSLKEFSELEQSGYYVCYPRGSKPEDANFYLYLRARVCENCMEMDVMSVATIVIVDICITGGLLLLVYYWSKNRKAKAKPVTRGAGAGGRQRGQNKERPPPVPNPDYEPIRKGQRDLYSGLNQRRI
Chain of CD3 (Homo sapiens) (P04234 22-171, chain 2 of 3, further chain): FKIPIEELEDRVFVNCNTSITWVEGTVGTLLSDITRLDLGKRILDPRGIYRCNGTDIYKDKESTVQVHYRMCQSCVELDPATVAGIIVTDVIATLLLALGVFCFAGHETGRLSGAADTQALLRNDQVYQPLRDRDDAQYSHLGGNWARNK
Chain of CD3 (Homo sapiens) (P09693 23-182, chain 3 of 3, further chain): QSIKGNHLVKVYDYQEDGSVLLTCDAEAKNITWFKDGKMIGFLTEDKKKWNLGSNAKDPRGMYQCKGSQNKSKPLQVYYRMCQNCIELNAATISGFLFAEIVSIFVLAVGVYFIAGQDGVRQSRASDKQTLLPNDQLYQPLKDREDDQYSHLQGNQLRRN

Chain of UniProt P08637 (P08637 17-254): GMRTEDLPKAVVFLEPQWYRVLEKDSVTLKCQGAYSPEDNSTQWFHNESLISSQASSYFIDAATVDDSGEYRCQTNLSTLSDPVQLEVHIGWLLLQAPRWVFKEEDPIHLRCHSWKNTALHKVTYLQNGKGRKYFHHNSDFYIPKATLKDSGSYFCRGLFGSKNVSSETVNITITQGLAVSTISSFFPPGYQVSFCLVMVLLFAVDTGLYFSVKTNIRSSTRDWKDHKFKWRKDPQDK

Work on “NKG2D-CD16 bispecific fusion protein (from UniProt P26718 78-216)” yielded an EC50 [1] of 2.2 nM.

With “NKG2D-Fc-ADCC fusion protein (from UniProt P26718 73-216) (Fc fusion)” the EC50 [2] was 20 nM.

B1: NKG2D-CD3 bispecific fusion protein, P26718 78-216 (protein)
chain 1: EVQLQQSGPELVKPGASMKISCKASGYSFTGYTMNWVKQSHGKNLEWMGLINPYKGVSTYNQKFKDKATLTVDKSSSTAYMELLSLTSEDSAVYYCARSGYYGDSDWYFDVWGQGTTLTVFSASTKGPSVFPLAPSSKSTSGGTAALGCLVKDYFPEPVTVSWNSGALTSGVHTFPAVLQSSGLYSLSSVVTVPSSSLGTQTYICNVNHKPSNTKVDKKVEPKSCDKTHTSPPSPAPPVAGPSVFLFPPKPKDTLMISRTPEVTCVVVGVSHEDPEVKFNWYVDGVEVHNAKTKPREEQYQSTYRVVSVLTVLHQDWLNGKEYKCKVSNKQLPSPIEKTISKAKFLNSLFNQEVQIPLTESYCGPCPKNWICYKNNCYQFFDESKNWYESQASCMSQNASLLKVYSKEDQDLLKLVKSYHWMGLVHIPTNGSWQWEDGSILSPNLLTIIEMQKGDCALYASSFKGYIENCSTPNTYICMQRTV
chain 2: MDIQMTQTTSSLSASLGDRVTISCRASQDIRNYLNWYQQKPDGTVKLLIYYTSRLHSGVPSKFSGSGSGTDYSLTISNLEQEDIATYFCQQGNTLPWTFAGGTKLEIKRTVAAPSVFIFPPSDEQLKSGTASVVCLLNNFYPREAKVQWKVDNALQSGNSQESVTEQDSKDSTYSLSSTLTLSKADYEKHKVYACEVTHQGLSSPVTKSFNRGEC
For B1, the EC50 (CD3 (Homo sapiens)) was 2.1 nM.
